Measurements from US20120065106.
Where a chain is given by its changes, count along the chain named. Names and notes keep the numbering of the source.

Experiments:
[1] = target: T1, SUMO*-GFP (engineered SUMO 2F4, Smt3 R64T R71E, fused to GFP)
T1 chain: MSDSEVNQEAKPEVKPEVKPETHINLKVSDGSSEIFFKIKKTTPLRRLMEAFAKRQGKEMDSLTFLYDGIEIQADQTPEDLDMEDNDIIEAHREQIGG

[2] = target: SMT3-GFP (wild-type SUMO-GFP fusion) [SUMO: Q12306]
[3] = target: SUMO mutant 1A3 (R64Q), GFP fusion [SUMO: Q12306]
[4] = target: SUMO mutant 2E4 (R64T; R71E), GFP fusion [SUMO: Q12306]
[5] = target: SUMO mutant 1C1 (R64L), GFP fusion [SUMO: Q12306]
[6] = target: SUMO mutant 2E11 (R64F; R71E), GFP fusion [SUMO: Q12306]

B1: SUMO* protease 1 (ULP1 mutant 2.2; D451S, T452G, E455S) (protein)
chain: MGLVPELNEKDDDQVQKALASRENTQLMNRDNIEITVRDFKTLAPRRWLNSGIISFFMKYIEKSTPNTVAFNSFFYTNLSERGYQGVRRWMKRKKTQIDKLDKIFTPINLNQSHWALGIIDLKKKTIGYVDSLSNGPNAMSFAILTDLQKYVMEESKHTIGEDFDLIHLDCPQQPNGYDCGIYVCMNTLYGSADAPLDFDYKDAIRMRRFIAHLILTDALKLEHHHHHH
% Cleavage of SUMO* tag [1]: 100%
in vitro cleavage, protease titration (SDS-PAGE) [1]: SUMO* protease 1 cleaves the SUMO* tag
in vitro cleavage, protease titration (SDS-PAGE) [2]: SUMO* protease 1 cleaves wild type SUMO, but less efficiently than SUMO*

B2: ULP1 mutant 1.38 (residues 451-455: S T I I A) (protein)
chain: LVPELNEKDDDQVQKALASRENTQLMNRDNIEITVRDFKTLAPRRWLNSTIIAFFMKYIEKSTPNTVAFNSFFYTNLSERGYQGVRRWMKRKKTQIDKLDKIFTPINLNQSHWALGIIDLKKKTIGYVDSLSNGPNAMSFAILTDLQKYVMEESKHTIGEDFDLIHLDCPQQPNGYDCGIYVCMNTLYGSADAPLDFDYKDAIRMRRFIAHLILTDALK
% Cleavage of SUMO* tag [1]: 75%

B3: ULP1 mutant 2.3 (residues 451-455: A M I I A) (protein)
chain: B2 chain with S49A, T50M
% Cleavage of SUMO* tag [1]: 10%

B4: ULP1 mutant 1.48 (residues 451-455: S T I I M) (protein)
chain: B2 chain with A53M
% Cleavage of SUMO* tag [1]: 75%

B5: ULP1 (wild-type SUMO protease 1) (protein)
chain: B2 chain with S49D, A53E
% Cleavage of SUMO* tag [1]: 0%
% Cleavage with ULP1 [1]: 0%
in vitro cleavage reaction [1]: Neither protease cleaved SUMO*
in vitro cleavage, protease titration [1]: incubated with increasing amounts of Ulp1 up to 1000 fold excess of the enzyme concentration required to fully cleave SUMO and still no cleavage was detected
in vitro cleavage, protease titration (SDS-PAGE) [1]: ULP1 does not cleave SUMO* tag
% Cleavage with ULP1 [3]: 10%
% Cleavage with ULP1 [2]: 100%
in vitro cleavage (SDS-PAGE and anti-Smt3 Western blot) [2]: wild-type SUMO (Smt3) is cleaved by ULP1 and SENP2 (SUMO protease 1 and 2) in vitro
in vitro cleavage, protease titration (SDS-PAGE) [2]: ULP1 cleaves the SMT3 tag
% Cleavage with ULP1 [4]: 0%
% Cleavage with ULP1 [5]: 10%
% Cleavage with ULP1 [6]: 0%
